Drawing on paper PMC7069974, this text covers binding signal for one substance.

The target of this series is His-flXPA (human) (UniProt P23025). Description: AFM. To be noted: single dG-C8-AAF at 30% from 3' end; EMSA: 8 nM DNA, 20 mM HEPES pH 7.5, 150 mM NaCl, 5 mM DTT, 0.5 mg/ml BSA, 5% glycerol, 25 min at room temperature; gel 5% native, 0.5x TBE, 4 C. AFM: 100 nM …; scale: fold specificity for dG-C8-AAF over non-damaged DNA. On the technique in general: In EMSA bound probe runs differently from free probe, usually more slowly.
Chain of His-flXPA (human) (P23025 whole entry): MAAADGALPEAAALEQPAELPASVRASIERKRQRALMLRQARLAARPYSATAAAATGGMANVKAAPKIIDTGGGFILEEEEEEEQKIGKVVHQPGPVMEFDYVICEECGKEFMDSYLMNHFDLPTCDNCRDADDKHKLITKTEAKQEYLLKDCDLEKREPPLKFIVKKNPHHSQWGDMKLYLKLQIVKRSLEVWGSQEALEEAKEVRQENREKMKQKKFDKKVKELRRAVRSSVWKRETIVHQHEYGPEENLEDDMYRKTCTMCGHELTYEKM

AAF538 came in with a binding signal of 660.
